According to publication PMC5461540 (2017):
Read-outs that look alike come from different tables or passages of the source. Blank lines part the entries; values can stand above or below the binder they belong to. Where no end group is shown, it is not given here. [ ]: non-standard residue; d: D form. pS = N[C@@H](COP(=O)(O)O)C(=O)O

B2: MOB1A wild-type (natural protein)
chain: SFLFSSRSSKTFKPKKNIPEGSHQYELLKHAEATLGSGNLRQAVMLPEGEDLNEWIAVNTVDFFNQINMLYGTITEFCTEASCPVMSAGPRYEYHWADGTNIKKPIKCSAPKYIDYLMTWVQDQLDDETLFPSKIGVPFPKNFMSVAKTILKRLFRVYAHIYHQHFDSVMQLQEEAHLNTSFKHFIFFVQEFNLIDRRELAPLQELIEKLGSKDR

How the values were obtained:
yeast Mob1 [1] = target: T1, yeast Mob1 (yeast, UniProt P40484 79-314); experiment: FP
T1 chain: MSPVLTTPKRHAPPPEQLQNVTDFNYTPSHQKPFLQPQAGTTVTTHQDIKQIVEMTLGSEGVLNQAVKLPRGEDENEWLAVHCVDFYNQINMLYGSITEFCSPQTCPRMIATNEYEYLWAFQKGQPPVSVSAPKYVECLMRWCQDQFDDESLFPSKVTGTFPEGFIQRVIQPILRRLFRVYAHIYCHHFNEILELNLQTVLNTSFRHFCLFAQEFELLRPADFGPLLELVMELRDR

MOB1A wild-type [2] = target: B2; experiment: FP
[3] = target: T2, FITC labeled MST1 pT380 phosphopeptide (human, UniProt Q13043, phosphothreonine at 380; FITC label (position not given)); experiment: FP
MST1 pT329/pT340 peptide = experiment: FP; doubly phosphorylated pT329/pT340
MST1 pT380/pT387 peptide = experiment: FP; doubly phosphorylated pT380/pT387
[4] = target: T3, FITC labeled MST1 pT340 phosphopeptide (human, UniProt Q13043, phosphothreonine at 340; FITC label (position not given)); experiment: FP
[5] = target: T4, FITC labeled MST1 pT329 phosphopeptide (human, UniProt Q13043, phosphothreonine at 329; FITC label (position not given)); experiment: FP
[6] = target: T3, FITC labeled MST1 pT340 phosphopeptide; experiment: FP; remark: listed apart in the source
[7] = target: T2, FITC labeled MST1 pT380 phosphopeptide; experiment: FP; remark: listed apart in the source
[8] = target: T4, FITC labeled MST1 pT329 phosphopeptide; experiment: FP; remark: listed apart in the source
MOB1A wild-type [9] = target: B2; experiment: FP
yeast Mob1 [10] = target: T1, yeast Mob1; experiment: FP
MOB1B (tags cleaved) = target: T5, MOB1B (tags cleaved) (human, UniProt Q7L9L4-2 2-216); experiment: FP
T5 chain: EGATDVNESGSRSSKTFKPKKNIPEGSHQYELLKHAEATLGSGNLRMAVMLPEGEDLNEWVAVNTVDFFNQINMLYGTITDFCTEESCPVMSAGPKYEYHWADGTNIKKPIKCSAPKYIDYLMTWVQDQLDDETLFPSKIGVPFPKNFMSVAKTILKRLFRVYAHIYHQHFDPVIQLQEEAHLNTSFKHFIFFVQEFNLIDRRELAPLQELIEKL

MOB3C = target: T6, MOB3C (human, UniProt Q70IA8 2-216); experiment: FP
T6 chain: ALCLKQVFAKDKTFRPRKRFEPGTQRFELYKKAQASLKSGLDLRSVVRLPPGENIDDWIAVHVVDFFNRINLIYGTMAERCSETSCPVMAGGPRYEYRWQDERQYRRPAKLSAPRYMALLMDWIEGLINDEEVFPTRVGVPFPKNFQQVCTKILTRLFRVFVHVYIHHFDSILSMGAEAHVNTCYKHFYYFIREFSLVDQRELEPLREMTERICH

MOB3B = target: T7, MOB3B (human, UniProt Q86TA1 2-216); experiment: FP
T7 chain: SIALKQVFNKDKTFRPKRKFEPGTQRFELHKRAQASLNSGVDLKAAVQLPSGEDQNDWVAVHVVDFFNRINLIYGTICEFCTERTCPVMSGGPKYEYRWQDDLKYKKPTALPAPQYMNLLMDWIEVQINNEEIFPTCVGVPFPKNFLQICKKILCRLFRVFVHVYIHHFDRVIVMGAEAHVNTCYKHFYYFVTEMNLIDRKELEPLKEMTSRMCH

MOB3A = target: T8, MOB3A (human, UniProt Q96BX8 2-217); experiment: FP
T8 chain: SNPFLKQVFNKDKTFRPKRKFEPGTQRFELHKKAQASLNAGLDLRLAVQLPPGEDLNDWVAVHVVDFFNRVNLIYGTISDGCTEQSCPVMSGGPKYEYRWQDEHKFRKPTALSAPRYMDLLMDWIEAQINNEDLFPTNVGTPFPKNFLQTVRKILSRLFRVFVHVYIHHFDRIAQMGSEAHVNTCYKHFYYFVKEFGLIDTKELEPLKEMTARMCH

Binder: B2
Kd [3]: 186 µM
Kd (MST1 pT329/pT340 peptide): 49 µM
Kd (MST1 pT380/pT387 peptide): 95 µM
Kd [4]: 66 µM
Kd [5]: 47 µM
Kd [6]: 66.1 µM
Kd [7]: 185 µM
Kd [8]: 46.5 µM

B4: FITC labeled phosphorylated MST1 T353 peptide (peptide)
chain: VASTMTDGANTMIEH
modifications: also: phosphothreonine at 353 (place in peptide not given here), FITC label, position not given here
Kd (MOB1A wild-type [9]): 0.31 µM

Now from value to binder:

Kd (yeast Mob1 [1]): 0.4 µM
Kd (MOB1A wild-type [2]): 30 µM
B1: optimized Nud1-like phosphoserine containing peptide (FITC labeled) (peptide)
chain: YH[pS]VVRYA
modifications: also: FITC label, position not given here

Kd (MOB1A wild-type [9]): 0.58 µM
Kd (yeast Mob1 [10]): 29.3 µM
Kd (MOB1B (tags cleaved)): 0.78 µM
Kd (MOB3C): 2.3 µM
Kd (MOB3B): 2.6 µM
Kd (MOB3A): 2.9 µM
Kd (yeast Mob1 [1]): 29 µM
Kd (MOB1A wild-type [2]): 0.8 µM
B3: FITC labeled phosphorylated MST1 T367 peptide (peptide)
chain: DDTLPSQLGTMVINA
modifications: also: phosphothreonine at 367 (place in peptide not given here), FITC label, position not given here
